The text below walks through data of US20130129746A1 (GlaxoSmithKline, published 2013).

Positions count from the first letter of the chain named.

A word on the Kd: it is the free concentration of one partner at which half of the binding sites on the other are occupied at equilibrium, for simple one-to-one binding. One may read the koff as a measure of how fast the partners let go of each other. As usually defined, the kon is the rate constant with which the complex forms.

Test [1] addresses T1, Rat Serum Albumin (rat, UniProt P02770 25-608).
T1 construct: mature; purified protein on CM5 chips for BIAcore; also called RSA; rat SA
The test is described as follows: BIAcore SPR (Albumin KD column).

In test [2] the target is T2, Cynomolgus monkey Serum Albumin (Cynomolgus monkey, UniProt A2V9Z4 25-608).
T2 construct: mature; purified protein on CM5 chips for BIAcore; also called CSA; cyno SA
Kind of test: Albumin KD column of the PK table (row marked historical data; differs from Table 6); historical data (*), not the Table 6 run.

In test [3] the target is T1, Rat Serum Albumin. The test is described as follows: Albumin KD column of the PK table (repeats Table 6).
Target sequence in this assay (P02770 25-608): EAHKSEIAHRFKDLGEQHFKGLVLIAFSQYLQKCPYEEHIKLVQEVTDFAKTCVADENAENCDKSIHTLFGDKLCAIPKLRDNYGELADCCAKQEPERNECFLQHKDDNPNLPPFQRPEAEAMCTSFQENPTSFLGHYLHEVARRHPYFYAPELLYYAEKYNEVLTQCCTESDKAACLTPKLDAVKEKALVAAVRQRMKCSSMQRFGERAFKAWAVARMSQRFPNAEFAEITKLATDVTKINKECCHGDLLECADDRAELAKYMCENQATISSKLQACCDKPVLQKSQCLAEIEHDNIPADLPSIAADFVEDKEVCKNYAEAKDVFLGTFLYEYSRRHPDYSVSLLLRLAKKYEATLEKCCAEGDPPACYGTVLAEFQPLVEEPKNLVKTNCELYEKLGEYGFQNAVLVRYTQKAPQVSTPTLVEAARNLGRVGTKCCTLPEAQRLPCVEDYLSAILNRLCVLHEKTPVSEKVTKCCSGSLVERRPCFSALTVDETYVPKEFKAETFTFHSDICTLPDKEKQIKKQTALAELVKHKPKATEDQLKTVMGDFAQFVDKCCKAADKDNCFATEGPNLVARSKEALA
The target in test [4] is T3, mouse serum albumin (mouse, UniProt P07724 25-608).
T3 construct: mature; purified protein on CM5 chips for BIAcore; also called MSA; mouse SA
The test is described as above.

The target in test [5] is T1, Rat Serum Albumin. The test is described as follows: BIAcore SPR.
Target sequence in this assay (P02770 25-608): as above
Experimental: (§1) Binding to HSA, CSA, MSA and RSA by BIAcore was confirmed using purified protein at 3 concentrations 1 μM, 500 nM and 50 nM.
Test [6] addresses T2, Cynomolgus monkey Serum Albumin. The test is described as follows: BIAcore SPR. Background: In SPR one partner is held on a chip, and binding of the other changes the refractive index at the surface.
Experimental: as §1
The target of test [7] is T3, mouse serum albumin. The test is described as follows: BIAcore SPR.
Experimental: as §1
Test [8] addresses T1, Rat Serum Albumin. Kind of test: BIAcore SPR, second independent experiment; second, independent SPR experiment (bracketed values).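 Further: purified domain antibodies run as analytes at 50 nM, 500 nM and 1 µM over HSA, CSA, MSA and RSA.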
Experimental: as §1
Test [9] deals with T4, Human Serum Albumin (human, UniProt P02768 25-609).
T4 construct: mature; purified protein on CM5 chips for BIAcore; also called HSA; human SA
The test is described as follows: BIAcore SPR, second independent experiment.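 Further: purified domain antibodies run as analytes at 50 nM, 500 nM and 1 µM over HSA, CSA, MSA and RSA.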
Experimental: as §1

Test [10] has as its target T1, Rat Serum Albumin. Kind of test: BIAcore SPR, second independent experiment.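 Further: purified domain antibodies run as analytes at 50 nM, 500 nM and 1 µM over HSA, CSA, MSA and RSA.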
Experimental: as §1
Test [11] has as its target T2, Cynomolgus monkey Serum Albumin. Kind of test: BIAcore SPR, second independent experiment.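 Further: purified domain antibodies run as analytes at 50 nM, 500 nM and 1 µM over HSA, CSA, MSA and RSA.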
Experimental: as §1
Test [12] concerns the target T3, mouse serum albumin. The test is described as follows: BIAcore SPR, second independent experiment.
Experimental: as §1
In test [13] the target is T4, Human Serum Albumin. Kind of test: BIAcore SPR.
Experimental: as §1
Test [14] concerns the target T4, Human Serum Albumin. Kind of test: BIAcore SPR. The source holds these as a separate data set.
Text: (§2) MSA antigen was obtained from Sigma (essentially fatty acid free, ˜99% (agarose gel electrophoresis), lyophilized powder Cat. No. A3559) and CSA was purified from Cynomolgus serum albumin using prometic blue resin (Amersham).
Test [15] concerns the target T1, Rat Serum Albumin. The test is described as follows: BIAcore SPR. This is another data set of the same source.
Target sequence in this assay (P02770 25-608): as above
Text: as §2
Test [16] deals with T2, Cynomolgus monkey Serum Albumin. Kind of test: BIAcore SPR. The source holds these as a separate data set.
Text: as §2
Test [17] addresses T3, mouse serum albumin. Kind of test: BIAcore SPR. This is another data set of the same source.
Text: as §2
Test [18] addresses T2, Cynomolgus monkey Serum Albumin. Kind of test: Albumin KD column of the PK table (repeats Table 6).
For test [19] the target is unchanged. Kind of test: Albumin KD column of the PK table (repeats Table 6; row marked historical data).
For test [20], the target named is T1, Rat Serum Albumin. Kind of test: Albumin KD column of the PK table (repeats Table 6; row marked historical data); Albumin KD column of PK Table 10; historical data.
For test [21], the target named is T1, Rat Serum Albumin. Kind of test: BIAcore SPR, DOM1m-21-23 fusion against unfused AlbudAb.

T3 sequence (P07724 25-608): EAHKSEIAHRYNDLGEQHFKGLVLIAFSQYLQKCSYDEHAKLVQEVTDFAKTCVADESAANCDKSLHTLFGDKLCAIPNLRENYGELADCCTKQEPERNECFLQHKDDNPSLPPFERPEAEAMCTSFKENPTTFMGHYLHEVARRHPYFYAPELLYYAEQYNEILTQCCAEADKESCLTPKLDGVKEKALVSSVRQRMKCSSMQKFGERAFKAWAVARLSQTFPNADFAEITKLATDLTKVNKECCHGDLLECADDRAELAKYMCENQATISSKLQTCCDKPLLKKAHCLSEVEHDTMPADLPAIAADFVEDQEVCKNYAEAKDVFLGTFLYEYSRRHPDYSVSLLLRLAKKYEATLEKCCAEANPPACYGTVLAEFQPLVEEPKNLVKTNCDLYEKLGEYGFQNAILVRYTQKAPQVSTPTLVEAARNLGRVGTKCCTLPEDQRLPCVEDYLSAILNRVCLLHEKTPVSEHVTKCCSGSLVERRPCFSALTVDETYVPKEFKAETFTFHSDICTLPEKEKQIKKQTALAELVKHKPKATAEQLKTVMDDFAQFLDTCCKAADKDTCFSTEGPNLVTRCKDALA
T2 sequence (A2V9Z4 25-608): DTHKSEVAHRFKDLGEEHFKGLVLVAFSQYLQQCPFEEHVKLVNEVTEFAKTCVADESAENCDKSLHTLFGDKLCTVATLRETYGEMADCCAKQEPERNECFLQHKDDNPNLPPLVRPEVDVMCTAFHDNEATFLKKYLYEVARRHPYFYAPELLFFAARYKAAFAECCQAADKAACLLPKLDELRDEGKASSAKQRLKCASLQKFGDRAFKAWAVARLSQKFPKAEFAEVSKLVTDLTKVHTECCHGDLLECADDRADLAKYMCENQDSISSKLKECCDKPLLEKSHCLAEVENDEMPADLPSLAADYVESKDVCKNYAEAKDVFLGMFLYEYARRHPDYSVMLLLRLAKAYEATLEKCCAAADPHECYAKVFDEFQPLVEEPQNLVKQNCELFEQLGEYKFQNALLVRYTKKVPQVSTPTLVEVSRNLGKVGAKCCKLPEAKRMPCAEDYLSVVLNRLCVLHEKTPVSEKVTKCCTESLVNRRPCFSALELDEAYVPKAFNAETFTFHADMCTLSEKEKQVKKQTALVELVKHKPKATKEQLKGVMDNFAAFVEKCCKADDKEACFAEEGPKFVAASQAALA

B1: DOM7h14-10/TVAAPSC fusion (NCE conjugate) (other)
chain: DIQMTQSPSSLSASVGDRVTITCRASQWIGSQLSWYQQKPGKAPKLLIMWRSSLQSGVPSRFSGSGSGTDFTLTISSLQPEDFATYYCAQGLRHPKTFGQGTKVEIKRTVAAPSC
modifications: C-terminal Cys of the TVAAPSC spacer conjugated by maleimide through a PEG 4 linker to the NCE (small molecule ADAMTS-4 inhibitor)
notes: AlbudAb-drug conjugate; also called DOM7h14-10 NCE-TVAAPSC
The molecule B1 yielded a Kd with Rat Serum Albumin [1] of 35 nM.

B2: DOM7h-11 (other)
VL: DIQMTQSPSSLSASVGDRVTITCRASRPIGTTLSWYQQKPGKAPKLLIWFGSRLQSGVPSRFSGSGSGTDFTLTISSLQPEDFATYYCAQAGTHPTTFGQGTKVEIKR
For the molecule B2, the Kd in test [2] came out at 3.3 µM; with Rat Serum Albumin [3] it was 2100 nM; with mouse serum albumin [4], 5000 nM; in the test with Rat Serum Albumin [5], 2100 nM; in test [6], 1000 nM; with mouse serum albumin [7] it was 5000 nM. Further, the koff was determined as 0.1 s⁻¹ in the test with Rat Serum Albumin [5], 0.682 s⁻¹ in test [6] and 0.9 s⁻¹ in the test with mouse serum albumin [7]. Also, the kon in the test with Rat Serum Albumin [5] amounted to 48000 M⁻¹ s⁻¹; in test [6] it was 800000 M⁻¹ s⁻¹.

B3: DOM7h-11-3 (other)
VL: B2 VL with W49L, F50W, G51N
Take B3: the koff is 0.718 s⁻¹ with Rat Serum Albumin [8]; 0.0235 s⁻¹ in the test with Human Serum Albumin [9]; 0.15 s⁻¹ in test [11]; 0.612 s⁻¹ in the test with mouse serum albumin [12]; 0.016 s⁻¹ with Human Serum Albumin [13]; 0.096 s⁻¹ in [6]. In addition, the Kd in the test with Human Serum Albumin [9] was found to be 130 nM; in the test with Rat Serum Albumin [10], 88 µM; in [11], 200 nM; in the test with mouse serum albumin [12] it was 36 µM; in the test with Human Serum Albumin [13], 32 nM; in the test with Rat Serum Albumin [5], 10000 nM. For the same molecule, the Kd in test [6] was 670 nM; with mouse serum albumin [7], no less than 10000 nM. The kon was 186000 M⁻¹ s⁻¹ in the test with Human Serum Albumin [9]; 8110 M⁻¹ s⁻¹ in the test with Rat Serum Albumin [10]; 726000 M⁻¹ s⁻¹ in test [11]; 16700 M⁻¹ s⁻¹ in the test with mouse serum albumin [12]; 650000 M⁻¹ s⁻¹ in the test with Human Serum Albumin [13]; 290000 M⁻¹ s⁻¹ in test [6].

B4: DOM7h-11-12 (other)
VL: B2 VL with T32M, W49L
B4: the Kd with Rat Serum Albumin [3] is 200 nM; with mouse serum albumin [4], 130 nM; with Human Serum Albumin [13], 350 nM; in the test with Rat Serum Albumin [5], 200 nM; in test [6], no less than 6000 nM; with mouse serum albumin [7], 130 nM. In addition, the figures for the koff with Human Serum Albumin [13], in the test with Rat Serum Albumin [5] and with mouse serum albumin [7] were 0.413 s⁻¹, 0.522 s⁻¹ and 0.189 s⁻¹, respectively. Also, the values for the on-rate (kon) with Human Serum Albumin [13], with Rat Serum Albumin [5] and with mouse serum albumin [7] were 1.26e+06 M⁻¹ s⁻¹, 2.76e+06 M⁻¹ s⁻¹ and 1.53e+06 M⁻¹ s⁻¹, respectively.

B5: DOM7h-11-15 (other)
VL: B2 VL with T32M, W49L, F50A, G51F
For the molecule B5, the Kd was 1.4 nM in the test with Human Serum Albumin [14]; 21 nM with Rat Serum Albumin [15]; 5.3 nM in [16]; 10.3 nM with mouse serum albumin [17]; 20 nM with Rat Serum Albumin [3]; 3 nM in test [18]. Moreover, the Kd in the test with mouse serum albumin [4] amounted to 10 nM; with Human Serum Albumin [13], 1 nM; with Rat Serum Albumin [5] it was 20 nM; in [6], 3 nM; with mouse serum albumin [7] it was 10 nM. In addition, the koff stood at 0.00184 s⁻¹ with Human Serum Albumin [13], 0.021 s⁻¹ with Rat Serum Albumin [5], 0.00557 s⁻¹ in test [6] and 0.0094 s⁻¹ in the test with mouse serum albumin [7]. Besides, the figures for the kon in the test with Human Serum Albumin [13], in the test with Rat Serum Albumin [5] and in the test with mouse serum albumin [7] were 2e+06 M⁻¹ s⁻¹, 1.1e+06 M⁻¹ s⁻¹ and 1.1e+06 M⁻¹ s⁻¹, respectively.

B6: DOM7h-14 (other)
VL: DIQMTQSPSSLSASVGDRVTITCRASQWIGSQLSWYQQKPGKAPKLLIMWRSSLQSGVPSRFSGSGSGTDFTLTISSLQPEDFATYYCAQGAALPRTFGQGTKVEIKR
notes: Vk dAb (AlbudAb)
Consider B6, for which the Kd in test [19] is 66 nM; in the test with Human Serum Albumin [13], 33 nM; in the test with Rat Serum Albumin [5], 60 nM; in test [6], 66 nM; in the test with mouse serum albumin [7], 12 nM; in the test with Rat Serum Albumin [20], 60 nM. Moreover, the koff came out at 0.0417 s⁻¹ with Human Serum Albumin [13], 0.209 s⁻¹ with Rat Serum Albumin [5], 0.0965 s⁻¹ in test [6] and 0.0482 s⁻¹ in the test with mouse serum albumin [7]. Further, the association rate constant (kon) with Human Serum Albumin [13] was determined as 1.43e+06 M⁻¹ s⁻¹; with Rat Serum Albumin [5] it was 4e+06 M⁻¹ s⁻¹; in [6] it was 1.5e+06 M⁻¹ s⁻¹; in the test with mouse serum albumin [7] it was 4.1e+06 M⁻¹ s⁻¹.

B7: DOM7h-14-10 (other)
VL: B6 VL with A92L, A93R, L94H, R96K
notes: Vk dAb (AlbudAb)
On to B7, for which the Kd with Rat Serum Albumin [3] is 4 nM; in [18], 9 nM; in the test with Human Serum Albumin [13], 12 nM; in the test with Rat Serum Albumin [5] it was 4 nM; in test [6] it was 9 nM; in the test with mouse serum albumin [7] it was 30 nM. Further, the koff in the test with Human Serum Albumin [13] stood at 0.0139 s⁻¹; with Rat Serum Albumin [5], 0.00964 s⁻¹; in [6], 0.0115 s⁻¹; with mouse serum albumin [7] it was 0.0341 s⁻¹. The kon in the test with Human Serum Albumin [13] was found to be 1.5e+06 M⁻¹ s⁻¹; in the test with Rat Serum Albumin [5], 4.57e+06 M⁻¹ s⁻¹; in test [6], 1.6e+06 M⁻¹ s⁻¹; with mouse serum albumin [7], 1.29e+06 M⁻¹ s⁻¹.

B8: DOM7h14-10/G4SC-NCE fusion (other)
chain: DIQMTQSPSSLSASVGDRVTITCRASQWIGSQLSWYQQKPGKAPKLLIMWRSSLQSGVPSRFSGSGSGTDFTLTISSLQPEDFATYYCAQGLRHPKTFGQGTKVEIKRGGGGSC
modifications: C-terminal Cys of the GGGGSC spacer conjugated by maleimide through a PEG 4 linker to the NCE (small molecule ADAMTS-4 inhibitor)
notes: AlbudAb-drug conjugate; also called DOM7h14-10 NCE-GGGGSC; DOM7h-14-10 GGGGSC
The molecule B8 displayed a Kd with Rat Serum Albumin [1] of 62 nM.

B9: DOM7h-11-12/DOM1m-21-23 fusion DMS number 5516 (other)
chain: EVQLLESGGGLVQPGGSLRLSCAASGFTFNRYSMGWLRQAPGKGLEWVSRIDSYGRGTYYEDPVKGRFSISRDNSKNTLYLQMNSLRAEDTAVYYCAKISQFGSNAFDYWGQGTQVTVSSASTSGPSDIQMTQSPSSLSASVGDRVTITCRASRPIGTMLSWYQQKPGKAPKLLILFGSRLQSGVPSRFSGSGSGTDFTLTISSLQPEDFATYYCAQAGTHPTTFGQGTKVEIKR
notes: also called DMS5516
With B9, in the test with Rat Serum Albumin [21], the “fold decrease in affinity to RSA compared to the unfused AlbudAb” value was 2 fold.

B10: DOM7h-11-15/DOM1m-21-23 fusion DMS number 5517 (other)
chain: B9 chain with F177A, G178F
notes: also called DMS5517
With B10, in the test with Rat Serum Albumin [21], the “fold decrease in affinity to RSA compared to the unfused AlbudAb” value came out at 2 fold.
